The target in assay [1] is T1, canine IL17F-polyHis (canine, biotinylated in the biosensor assay).
T1 construct: also called IL17F homodimer; not shown: poly-His tag on the C-terminal
T1 chain: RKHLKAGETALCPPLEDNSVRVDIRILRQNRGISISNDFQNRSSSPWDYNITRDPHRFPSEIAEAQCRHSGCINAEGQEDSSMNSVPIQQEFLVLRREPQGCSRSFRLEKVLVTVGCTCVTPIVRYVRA
The assay is described as follows: Western blot: SDS-PAGE, PVDF, goat anti-mouse IgG-HRP. The procedure:
Canine IL17A-hFc, feline IL17A-polyHis, equine IL17A-polyHis, and canine IL17F-polyHis (0.6 μg) were each separated by SDS-PAGE and the proteins transferred to PVDF membranes. The blots were probed using Clone A, C, D, or E antibody followed by goat anti-mouse IgG-HRP. In this Western analysis, Clone A, C, and E antibodies immunoreacted to canine and equine IL17A, but not to feline IL17A or canine IL17F. Clone D antibody immunoreacted to canine, feline, and equine IL17A, but not to canine IL17F.
For orientation: In western blotting, separated proteins are transferred to a membrane and probed.

The target in assay [2] is T2, canine IL17A (as used at 1 nM in the H1080 cell assay) (canine).
T2 chain: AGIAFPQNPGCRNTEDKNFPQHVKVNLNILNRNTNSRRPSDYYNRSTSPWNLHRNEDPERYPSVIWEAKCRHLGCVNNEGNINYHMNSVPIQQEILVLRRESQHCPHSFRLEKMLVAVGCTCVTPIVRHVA
In words: cell-based or functional assay.

The target in assay [3] is T1, canine IL17F-polyHis. In words: BLI (Octet); biotinylated canine IL17F-polyHis on streptavidin sensors, antibody 0-124 nM, 1:1 model. How it is done: The binding analysis was performed using a biosensor Octet as follows. Briefly, canine IL17F-polyHis was biotinylated using EZ-Link NHS-LC-biotin (Catalog No. 21336, Thermo Scientific). Free, unreacted biotin was removed from biotinylated IL17F-polyHis by dialysis. Biotinylated canine IL17F was captured on streptavidin sensor tips (Catalog No. 18-509, ForteBio). The association of different concentrations (0 nM, 2 nM, 10.1 nM, 21.3 nM, 43.3 nM, 86.7 nM, 124 nM) of the caninized Clone C antibody and canine IL17F-polyHis was monitored for ninety seconds. Dissociation was monitored for 600 seconds. A buffer only blank curve was subtracted to correct for any drift. The data were fit to a 1:1 binding model using ForteBio™ data analysis software to determine the kₒₙ, koff, and the Kd. The buffer for dilutions and all binding steps was: 20 mM phosphate, 150 mM NaCl, pH 7.2.

The target of assay [4] is T2, canine IL17A (as used at 1 nM in the …). The assay is described as follows: cell-based or functional assay.
Assay [5] has as its target T3, canine IL17A-polyHis (canine, biotinylated (EZ-Link NHS-LC-biotin) in the biosensor assays).
T3 construct: also called biotinylated canine IL17A-polyHis; not shown: poly-His tag on the C-terminal
T3 chain: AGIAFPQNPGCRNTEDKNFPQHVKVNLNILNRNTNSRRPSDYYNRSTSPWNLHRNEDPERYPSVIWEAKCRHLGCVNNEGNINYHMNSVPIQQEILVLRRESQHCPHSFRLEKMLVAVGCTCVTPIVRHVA
In words: BLI (Octet); biotinylated canine IL17A-polyHis on streptavidin sensors, antibody 0-220 nM, 1:1 model. The procedure:
The binding analysis was performed using a Biosensor Octet as follows. Briefly, canine IL17A-polyHis, which was expressed and purified from CHO-S cells, was biotinylated using EZ-Link NHS-LC-biotin (Catalog No. 21336, Thermo Scientific). Free, unreacted biotin was removed from biotinylated IL17A by dialysis. Biotinylated canine IL17A was captured on streptavidin sensor tips (Catalog No. 18-509, ForteBio). The association of different concentrations (0 nM, 18.33 nM, 45.87 nM, 110 nM, 220 nM) of hybridoma Clone C or caninized Clone C antibody to canine IL17A was monitored for 90 seconds. Dissociation was monitored for 600 seconds. A buffer only blank curve was subtracted to correct for any drift. The data were fit to a 1:1 binding model using ForteBio™ data analysis software to determine the kₒₙ, koff, and the Kd. The buffer for dilutions and all binding steps was: 20 mM phosphate, 150 mM NaCl, pH 7.2.

Assay [6] deals with T4, canine IL4 (biotinylated) (canine, UniProt O77762 25-132, biotinylated).
T4 construct: Used only to capture the IL4R/IL13R-Fc fusions on streptavidin sensor tips; also called Biotinylated canine IL4
T4 sequence (looked up): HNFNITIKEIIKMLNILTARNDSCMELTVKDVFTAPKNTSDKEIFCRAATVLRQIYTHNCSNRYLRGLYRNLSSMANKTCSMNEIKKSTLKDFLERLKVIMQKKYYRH
In words: BLI capture step; biotinylated canine IL4 on streptavidin sensor tips, fusion at 25 µg/mL. How it is done: (§1) The determine the binding affinity of C1q to canine IgG-B Fc variant 1, a biosensor binding analysis was performed. In this assay, the affinity of C1q to a fusion protein of a canine IL4 receptor ECD and IL13 receptor ECD (IL4R/IL13R) and canine IgG-B Fc wild-type (IL4R/IL13R-canine IgG-B, SEQ ID NO: 95) or to canine IgG-B Fc variant 1 (IL4R/IL13R-canine IgG-B variant 1, SEQ ID NO: 96) was tested. Briefly, canine IL4 was biotinylated. Biotinylated canine IL4 was captured on streptavidin sensor tips. Either IL4R/IL13R-canine IgG-B wild-type (25 ug/mL) or IL4R/IL13R-canine IgG-B variant 1 (25 μg/mL) were complexed to the IL4-bound biosensors. Subsequently, the complex was used to bind human C1q at 250 μg/mL (Catalog No. 204876-1MG; Sigma Aldrich). Then, the ability of human C1q to bind to either complex was measured. Reduced binding between human C1q and IL4R/IL13R-canine IgG-B variant 1 was observed when compared to IL4R/IL13R-canine IgG-B wild-type.

Assay [7] addresses T5, human C1q (Catalog No. 204876-1MG; Sigma Aldrich) (human, UniProt P02745 23-245; P02746 28-253; P02747 29-245).
T5 construct: Bought protein
In words: BLI; Fc fusion (25 µg/mL) captured on IL4-bound streptavidin sensors, human C1q at 250 µg/mL. How it is done:
as §1
(In general: BLI is a label-free optical method that tracks binding on a fibre tip over time.)

T5 sequence (P02745 23-245 limits assumed, chain 1 of 3): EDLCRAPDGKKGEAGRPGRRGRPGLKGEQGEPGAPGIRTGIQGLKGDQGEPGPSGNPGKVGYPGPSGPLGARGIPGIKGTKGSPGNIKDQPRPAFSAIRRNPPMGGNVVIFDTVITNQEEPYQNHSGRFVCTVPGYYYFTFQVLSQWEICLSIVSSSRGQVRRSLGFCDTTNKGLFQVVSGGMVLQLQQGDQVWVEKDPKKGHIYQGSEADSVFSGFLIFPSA
T5 sequence (P02746 28-253 limits assumed, chain 2 of 3): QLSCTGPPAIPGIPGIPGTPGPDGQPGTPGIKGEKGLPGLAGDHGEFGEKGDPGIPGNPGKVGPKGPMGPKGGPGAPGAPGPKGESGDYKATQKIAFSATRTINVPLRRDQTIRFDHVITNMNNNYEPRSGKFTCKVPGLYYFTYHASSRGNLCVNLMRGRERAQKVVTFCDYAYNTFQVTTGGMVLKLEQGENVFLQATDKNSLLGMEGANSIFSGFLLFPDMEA
T5 sequence (P02747 29-245 limits assumed, chain 3 of 3): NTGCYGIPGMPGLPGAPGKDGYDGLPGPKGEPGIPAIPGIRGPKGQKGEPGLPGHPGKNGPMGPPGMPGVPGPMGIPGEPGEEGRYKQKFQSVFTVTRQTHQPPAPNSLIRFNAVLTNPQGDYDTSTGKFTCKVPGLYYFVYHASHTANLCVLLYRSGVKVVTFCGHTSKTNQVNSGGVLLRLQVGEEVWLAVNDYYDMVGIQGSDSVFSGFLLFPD

B1: mouse monoclonal antibody Clone A (antibody, IgG1, V domains shown)
VH: QVQLKESGPGLVAPSQSLSITCTISGFSLTSNGVHWVRQSPGKDLEWLVVIWSDGTTTYNSDFKSRLSISKDNSKSQVFLKMNSLQTDDTAMYYCARHYDWGYYYAMDYWGQGTSVTVSS
VL: DVVMTQTPLSLPVSLGDQASISCRSSQSLVHSNGNTYLHWYLQRPGQSPNLLIYKVSNRFSGVPDRFSGSGSGTDFTLKISRVEAEDLGVYFCSQSTHVPFTFGSGTKLEIK
notes: Hybridoma antibody; also called antibody A
Take B1: in assay [1], the binding result was “no binding (tested: 0.6 µg of target per lane)”. Moreover, the “EC50 (ng/mL), H1080 Cell Functional Assay (IL6 secretion)” value in assay [2] worked out at 13 ng/mL.

B2: mouse monoclonal antibody Clone E (antibody, mouse IgG1, V domains shown)
VH: QVQLKESGPGLVAPSQSLSITCTISGFSLTSNGVHWVRQPPGKGLEWLVVIWSDGTTTYNSALKSRLSISKDNSKSQVFLKMNSLQTDDTAMYYCARHYDRGYYYAMDYWGQGTSVTVSS
VL: DVVMTQTPLSLPVSLGDQASISCRSSQSLVHSNGNTYFHWYLQKPGQSPKLLIYKVSNRFSGVPDRFSGSGSGTDFTLKISRVEAEDLGVYFCSQSTHAPFTFGSGTKLEIK
notes: Hybridoma antibody; also called antibody E
Turning to B2, in assay [1], the binding result was “no binding (tested: 0.6 µg of target per lane)”. Besides, the “EC50 (ng/mL), H1080 Cell Functional Assay (IL6 secretion)” value in assay [2] was 40 ng/mL.

B3: caninized Clone C antibody (caninized Clone C VH with canine IgG-B, caninized Clone C VL with canine kappa constant region) (antibody, V domains shown)
VH: EVQLVESGGGLVKPGGSLRLSCAASGFTFSSYGMSWVRQAPGKRLELVAIINSNGGSTYYPDSVKGRFTFSLDTSKNTLYLQMNSLRAEDTAMYYCVRCHYDYERVFDYWGQGTLVTVSS
VL: DIQMTQSPASVSGSLGDKVSITCKANDHINNWLAWYQQLPGNAPRLLISGSTSLESGVPDRFSGSKSGSSFTLTISGLQPEDFATYYCQQYWSTPFTFGSGTKVEIKR
notes: expressed in CHO-S cells, purified on Protein A
The Kd is the constant that tells how readily two partners part at equilibrium. Read a high Kd as weaker binding. For B3, the Kd came out at 4.1 nM in assay [3] and 1.4 nM in assay [5]. Besides, in assay [4], the “IC50, H1080 cell-based canine IL17A neutralization assay (IL6 secretion)” value turned out to be 0.41 nM.

B4: IL4R/IL13R-canine IgG-B wild-type (Fc fusion)
chain: TETQPPVTNLSVSVENLCTVIWTWDPPEGASPNCTLRYFSHFDNKQDKKIAPETHRSKEVPLNERICLQVGSQCSTNESDNPSILVEKCTPPPEGDPESAVTELQCVWHNLSYMKCTWLPGRNTSPDTNYTLYYWHSSLGKILQCEDIYREGQHIGCSFALTNLKDSSFEQHSVQIVVKDNAGKIRPSFNIVPLTSHVKPDPPHIKRLFFQNGNLYVQWKNPQNFYSRCLSYQVEVNNSQTETNDIFYVEEAKCQNSEFEGNLEGTICFMVPGVLPDTLNTVRIRVRTNKLCYEDDKLWSNWSQAMSIGENTDPTGGGSGSGSVKVLHEPSCFSDYISTSVCQWKMDHPTNCSAELRLSYQLDFMGSENHTCVPENREDSVCVCSMPIDDAVEADVYQLDLWAGQQLLWSGSFQPSKHVKPRTPGNLTVHPNISHTWLLMWTNPYPTENHLHSELTYMVNVSNDNDPEDFKVYNVTYMGPTLRLAASTLKSGASYSARVRAWAQTYNSTWSDWSPSTTWLNYYEPKRENGRVPRPPDCPKCPAPEMLGGPSVFIFPPKPKDTLLIARTPEVTCVVVDLDPEDPEVQISWFVDGKQMQTAKTQPREEQFNGTYRVVSVLPIGHQDWLKGKQFTCKVNNKALPSPIERTISKARGQAHQPSVYVLPPSREELSKNTVSLTCLIKDFFPPDIDVEWQSNGQQEPESKYRTTPPQLDEDGSYFLYSKLSVDKSRWQRGDTFICAVMHEALHNHYTQESLSHSPGK
B4: the binding result in assay [6] and in assay [7] was “binds” in each case.

B5: IL4R/IL13R-canine IgG-B variant 1 (C1q binding mutant) (Fc fusion)
chain: TETQPPVTNLSVSVENLCTVIWTWDPPEGASPNCTLRYFSHFDNKQDKKIAPETHRSKEVPLNERICLQVGSQCSTNESDNPSILVEKCTPPPEGDPESAVTELQCVWHNLSYMKCTWLPGRNTSPDTNYTLYYWHSSLGKILQCEDIYREGQHIGCSFALTNLKDSSFEQHSVQIVVKDNAGKIRPSFNIVPLTSHVKPDPPHIKRLFFQNGNLYVQWKNPQNFYSRCLSYQVEVNNSQTETNDIFYVEEAKCQNSEFEGNLEGTICFMVPGVLPDTLNTVRIRVRTNKLCYEDDKLWSNWSQAMSIGENTDPTGGGSGSGSVKVLHEPSCFSDYISTSVCQWKMDHPTNCSAELRLSYQLDFMGSENHTCVPENREDSVCVCSMPIDDAVEADVYQLDLWAGQQLLWSGSFQPSKHVKPRTPGNLTVHPNISHTWLLMWTNPYPTENHLHSELTYMVNVSNDNDPEDFKVYNVTYMGPTLRLAASTLKSGASYSARVRAWAQTYNSTWSDWSPSTTWLNYYEPKRENGRVPRPPDCPKCPAPEMLGGPSVFIFPPKPKDTLLIARTPEVTCVVVDLDPEDPEVQISWFVDGKQMQTAKTQPREEQFNGTYRVVSVLPIGHQDWLKGKQFTCRVNNKALPSPIERTISKARGQAHQPSVYVLPPSREELSKNTVSLTCLIKDFFPPDIDVEWQSNGQQEPESKYRTTPPQLDEDGSYFLYSKLSVDKSRWQRGDTFICAVMHEALHNHYTQESLSHSPGK
Regarding B5, the binding result in assay [6] and in assay [7] was “binds” each time.

(Values after patent publication US20200199216A1 (KINDRED BIOSCIENCES, published 2020).)
